This is an account of results in patent publication US20250340881A1, “PHARMACEUTICAL COMPOSITION FOR TREATING CANCER COMPRISING FOXM1 MUTANT OR FOXM1 SHRNA” (Industry-University Cooperation Foundation Hanyang …, priority 2022, published 2025).

Experiment [1] concerns A549 lung cancer cells. The experiment can be described thus: Real-time PCR of EMT, M2-inducing and immune evasion factors in A549 cells treated with Thiostrepton. It is filed as cell-based. Particulars: 5 μM, 48 h, Mock and S25E cells. Background: Real-time PCR tracks product formation cycle by cycle.
Experiment [2] has as its system A549 lung cancer cells. The experiment can be described thus: EMT marker expression (immunoblot, real-time PCR) in A549 cells expressing FoxM1 WT or mutants. It is filed as cell-based. Conditions: FoxM1 WT. From the text:
To establish a stabilized cell line expressing WT, phosphorylation, and non-phosphorylated point mutants of FoxM1 in lung cancer cells, A549 cells were first infected with pLVX-Tet3G expressing lentivirus, and the infected cells were selected by treating with G418 for 5 days. The selected A549Tet3G cells were infected with lentiviruses expressing WT and phosphorylated point mutants (S25E, S361E, S715E) and non-phosphorylated point mutants (S25A, S361A, S715A) of FoxM1, and then treated with puromycin for 48 hours to establish a stabilized cell line. The established cells were treated with 2 μg/ml of doxycycline to induce expression of WT, phosphorylation, and non-phosphorylated point mutants of FoxM1, and the mRNA and protein expression levels of each FoxM1 point mutant were determined to confirm whether they were well expressed. As shown in FIG. 4A and FIG. 4B, it was confirmed that the WT and each point mutant form of FoxM1 were well expressed through mRNA and protein expression levels. It was observed that the expression levels of N-cadherin and vimentin were higher, and the expression levels of E-cadherin were lower in lung cancer cells expressing the phosphorylated form of FoxM1, specifically, phosphorylated at the phosphorylation site S25, compared to the cells expressing the non-phosphorylated form of FoxM1. In addition, when it was examined whether the expression of these phosphorylation and non-phosphorylated point mutants of FoxM1 affected cell proliferation, it was observed that it had no significant effect on cell proliferation (FIG. 4C).
To establish a stabilized cell line expressing FoxM1 WT in A549 lung cancer cells, first, pLVX-Tet3G expressing lentivirus was infected into cells, and the infected cells were selected by treating 500 μg/ml of G418 for 5 days. The selected A549^Tet3G cells were infected with lentiviruses expressing FoxM1 WT or Mock, and the stabilized cell lines were established by treating with 2 μg/ml of puromycin for 48 hours. After inducing the expression of FoxM1 WT by treating the established cells with 2 μg/ml of doxycycline, the protein expression was observed by immunoblot.
(In general: In western blotting, separated proteins are transferred to a membrane and probed.)

A further experiment concerns THP-1 cells. The experiment in a line: M1 and M2 marker mRNA in THP-1 cells co-cultured with FoxM1-expressing A549 cells. It is filed as cell-based, human. Conditions: co-culture 48 h. The text has this: In the animal tissues, it was confirmed that both PD-L1 protein expression and CD274 mRNA expression were increased in cancer cells expressing FoxM1 (FIG. 5D, 5E). […] From the results described above, we investigated whether FoxM1 phosphorylated point mutant (S25E) affects the polarization of macrophages in the tumor microenvironment. After co-culturing human monocyte THP-1 cells and the cell groups over-expressing FoxM1 point mutants, M1 and M2 markers were examined in THP-1 cells.
Next, an expression suppression system for suppressing FoxM1 expression was established to observe whether the FoxM1 phosphorylated point mutant (S25E) directly affects polarization to M2 macrophages. First, to inhibit the expression of mRNA of FoxM1, a pLKO-puro.1-hFoxM1 plasmid was produced using a pLKO-puro.1 vector to construct shRNAs targeting nucleotide sequences at 709-729 positions in the human FoxM1 mRNA sequence. The following sequences can be used as target sequences for human FoxM1 shRNA production, and oligonucleotides with the following sequences can be used as primers for shRNA production. The gene accession number for human FoxM1 mRNA in PubMed is NM_001243088.2, and it contains 3507 bp. The following primers were used for shRNA production: 5′-ccgg-[…]-ctcgag-[…]-tttttg-3′ (forward primer) and 5′-aattcaaaaa-AGCAAG AGATGGAGGAAAAGG-ctcgag-[…]-3′ (reverse primer). Then, after purifying and concentrating each lentivirus for expression of the produced FoxM1 shRNA, it was constructed by infecting a lung cancer cell line, A549 cells expressing FoxM1, with the virus. The mRNA expression of M2 markers, CD163, CD206, and VEGFA, was examined after co-culturing lung cancer cells (4×10^4 cells/ml) with suppressed FoxM1 expression and THP-1 cells (1.2×10^5 cells/ml) for 48 h. […] When co-culturing with cancer cells expressing the FoxM1 variant S25E, it was confirmed that the M2 markers CD163, CD206, and VEGFA were all increased by 2 folds or more in THP1 cells compared to the control group (Mock_shCtrl) (FIG. 6D).
After co-culturing the FoxM1 WT protein over-expressed cancer cells (4×10^4 cells/ml) and THP-1 cells (1.2×10^5 cells/ml) for 48 h, the mRNA expression of M1 markers INOS and IL12B was not altered, while the mRNA expression of all the M2 markers IL10, CD163, CD206, TGFB1, and VEGFA was increased in the FoxM1 WT (FIG. 13A). Among them, CD206, TGFB1, and VEGFA had been known as markers for M2d-tumor-associated macrophages (M2d-TAM) (JAYASINGAM, Sharmilla Devi, et al., Frontiers in Oncology (2020) 9: 1512.).

For experiment [3], the system named is A549 cells. The experiment can be described thus: M2d-inducing factor mRNA in A549 cells after co-culture with THP-1 cells. Type of experiment: cell-based. Conditions: co-culture with THP-1 48 hours. As to the method: (§1) In addition, after co-culturing of human monocyte THP-1 cells and cell groups over-expressing FoxM1 point mutations for 48 hours under the conditions where the previous experiments were performed, the mRNA expression levels of M2d-inducing factors IL4, IL6, IL10, and VEGFA in A549 cells expressing FoxM1 S25E were analyzed. […] The amounts of TGFB1 and VEGFA proteins in the medium cultured for 48 h with A549 cells (4×10^4 cells/ml) expressing FoxM1 variants were measured by ELISA.

Experiment [4] concerns A549 cells. The experiment in a line: ELISA of TGFB1 and VEGFA proteins in A549 culture medium. It is filed as cell-based. Particulars: medium cultured 48 h. The protocol:
as §1
In general terms: ELISA stands for enzyme-linked immunosorbent assay.

The test system of another experiment is lung tissues. The experiment in a line: CD68 and CD163 immunostaining and immunoblot of lung tissues of injected mice. Type of experiment: in vivo. Particulars: lung tissues of injected mice. The protocol:
Additionally, the increase of macrophages around the tumor was examined by immunoblot using lung tissue lysates. […] Through the results of this study, it could be observed that the non-phosphorylated point mutant had the effect of inhibiting polarization into tumor-associated macrophages.
Furthermore, CD68, a marker for a broad range of macrophages, and CD163, a marker for tumor-associated macrophages, were analyzed in lung tissues of mice using immunostaining. It was determined that the expression of both CD68 and CD163 markers was increased in the lung tissues of mice injected with the FoxM1 WT protein over-expressed cells (FIG. 13D). Through the present results, it could be observed that there was an effect of promoting the polarization of M2 tumor-associated macrophages in lung cancer cells expressing the FoxM1 WT protein.

For experiment [5], the system named is A549 cells. The experiment can be described thus: PD-L1 (CD274) mRNA in A549 cells by real-time PCR. Type of experiment: cell-based. Particulars: A549 cells expressing the protein. As to the method:
To examine the mRNA expression levels of PD-1 and PD-L1, which are involved in solid tumor immune evasion, in THP-1 cells and the cells expressing the FoxM1 phosphorylated point mutant, the expression of PD-1 (CD279) mRNA, an immune evasion factor, was measured by qRT-PCR in THP-1 monocytes co-cultured with A549^S25E cells for 48 h (FIG. 7B). It was observed that the expression of mRNA of PD-L1 (CD274), an immune evasion factor, increased by 2 folds in the A549^S25E cells expressing the phosphorylated point mutant compared to the control group.

In the case of `C=C(NC(=O)C(=C)NC(=O)c1csc(C2=N[C@@H]3c4csc(n4)[C@H]4NC(=O)c5csc(n5)[C@H]([C@](C)(O)[C@@H](C)O)NC(=O)[C@H]5CSC(=N5)/C(=C/C)NC(=O)[C@H]([C@@H](C)O)NC(=O)c5csc(n5)[C@]3(CC2)NC(=O)[C@H](C)NC(=O)C(=C)NC(=O)[C@H](C)NC(=O)[C@H]([C@@H](C)CC)N[C@@H]2C=Cc3c([C@H](C)O)cc(nc3[C@H]2O)C(=O)O[C@@H]4C)n1)C(N)=O` [Thiostrepton], in the experiment with A549 lung cancer cells [1], the “expression of IL6, VEGFA and CD274 (PD-L1)” value is “significantly reduced”; the “expression of mesenchymal markers CDH2, vimentin, SNAI1 and SNAI2” value is “significantly reduced”. For the same molecule, in the experiment with A549 lung cancer cells [1] (listed as thiostepton), the “expression of IL6, VEGFA and CD274 (PD-L1)” value was “reduced”; the “expression of mesenchymal markers CDH2, vimentin, SNAI1 and SNAI2” value is listed as “reduced”.

B1: FoxM1 WT: wild-type FoxM1 protein (SEQ ID NO: 1) over-expressed by lentivirus in A549 cells (protein, listed as Homo sapiens)
chain: MKTSPRRPLILKRRRLPLPVQNAPSETSEEEPKRSPAQQESNQAEASKEVAESNSCKFPAGIKIINHPTMPNTQVVAIPNNANIHSIITALTAKGKESGSSGPNKFILISCGGAPTQPPGLRPQTQTSYDAKRTEVTLETLGPKPAARDVNLPRPPGALCEQKRETCDGEAAGCTINNSLSNIQWLRKMSSDGLGSRSIKQEMEEKENCHLEQRQVKVEEPSRPSASWQNSVSERPPYSYMAMIQFAINSTERKRMTLKDIYTWIEDHFPYFKHIAKPGWKNSIRHNLSLHDMFVRETSANGKVSFWTIHPSANRYLTLDQVFKQQQKRPNPELRRNMTIKTELPLGARRKMKPLLPRVSSYLVPIQFPVNQSLVLQPSVKVPLPLAASLMSSELARHSKRVRIAPKVLLAEEGIAPLSSAGPGKEEKLLFGEGFSPLLPVQTIKEEEIQPGEEMPHLARPIKVESPPLEEWPSPAPSFKEESSHSWEDSSQSPTPRPKKSYSGLRSPTRCVSEMLVIQHRERRERSRSRRKQHLLPPCVDEPELLFSEGPSTSRWAAELPFPADSSDPASQLSYSQEVGGPFKTPIKETLPISSTPSKSVLPRTPESWRLTPPAKVGGLDFSPVQTSQGASDPLPDPLGLMDLSTTPLQSAPPLESPQRLLSSEPLDLISVPFGNSSPSDIDVPKPGSPEPQVSGLAANRSLTEGLVLDTMNDSLSKILLDISFPGLDEDPLGPDNINWSQFIPELQ
With B1, in the experiment with A549 lung cancer cells [2], the “FoxM1 expression, real-time polymerase chain reaction” value is 4.4 folds; the “expression of E-cadherin, real-time polymerase chain reaction (reduced by)” value was 0.8 folds; the “expression of N-cadherin, real-time polymerase chain reaction” value is recorded as 1.5 folds; the “expression of vimentin, real-time polymerase chain reaction” value came out at 1.7 folds. For the same molecule, in the experiment with A549 lung cancer cells [2] (doxycycline 2 μg/ml), the “expression of E-cadherin, immunoblot (decreased by)” value turned out to be 0.6 folds; the “expression of N-cadherin, immunoblot” value was 2.2 folds; the “expression of vimentin, immunoblot” value was found to be 2.8 folds. In addition, in the experiment on THP-1 cells, the “mRNA expression of M1 markers INOS and IL12B in THP-1 cells” value was “not altered”; the “mRNA expression of M2 markers IL10, CD163, CD206, TGFB1 and VEGFA in THP-1 cells (in words)” value is “increased”. Besides, the “mRNA expression levels of M2d-inducing factors IL4, IL6, IL10 and VEGFA in A549 cells (in words)” value with A549 cells [3] is listed as “increased”. For the same molecule, the “amounts of TGFB1 and VEGFA proteins in medium (in words)” value in the experiment on A549 cells [4] is “markedly increased”. Also, the “expression of CD68 and CD163 markers, immunostaining (in words)” value in the experiment with lung tissues was “increased”. In addition, the “mRNA expression of PD-L1 (CD274) compared to the control group” value in the experiment with A549 cells [5] is recorded as “about 2.3 folds”.
